# Assay results as given in PMC12416549 (2024).
# T1: TNFR1 (Homo sapiens, UniProt P19438)
# T1 chain: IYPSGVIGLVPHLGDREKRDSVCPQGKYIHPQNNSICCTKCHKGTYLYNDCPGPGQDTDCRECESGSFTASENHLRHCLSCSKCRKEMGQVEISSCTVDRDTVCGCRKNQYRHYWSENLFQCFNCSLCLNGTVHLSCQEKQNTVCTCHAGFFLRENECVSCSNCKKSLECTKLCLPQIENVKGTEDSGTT
# Molecular target: T1, TNFR1
# Test: yeast display SC50
row,Binder,apparent Kd (screen) [nM]
1,A23H (designed binder) MTLQELLREEALRRAEAEAFRYHLELLAEKFPEQKEYLLDLAEEIESQIRSLSGVDVEDVRKFLDKEWAWVKELLAEHPAELAEVEAARAARLAELRAEVEAKVAA,1.27
2,L26T (designed binder) MTLQELLREEALRRAEAEAFRYALETLAEKFPEQKEYLLDLAEEIESQIRSLSGVDVEDVRKFLDKEWAWVKELLAEHPAELAEVEAARAARLAELRAEVEAKVAA,0.49
3,A17Q (designed binder) MTLQELLREEALRRAEQEAFRYALELLAEKFPEQKEYLLDLAEEIESQIRSLSGVDVEDVRKFLDKEWAWVKELLAEHPAELAEVEAARAARLAELRAEVEAKVAA,0.277
4,R8W (designed binder) MTLQELLWEEALRRAEAEAFRYALELLAEKFPEQKEYLLDLAEEIESQIRSLSGVDVEDVRKFLDKEWAWVKELLAEHPAELAEVEAARAARLAELRAEVEAKVAA,0.539
5,L39K (designed binder) MTLQELLREEALRRAEAEAFRYALELLAEKFPEQKEYLKDLAEEIESQIRSLSGVDVEDVRKFLDKEWAWVKELLAEHPAELAEVEAARAARLAELRAEVEAKVAA,1.16
6,A28I (designed binder) MTLQELLREEALRRAEAEAFRYALELLIEKFPEQKEYLLDLAEEIESQIRSLSGVDVEDVRKFLDKEWAWVKELLAEHPAELAEVEAARAARLAELRAEVEAKVAA,7.78
7,A42L (designed binder) MTLQELLREEALRRAEAEAFRYALELLAEKFPEQKEYLLDLLEEIESQIRSLSGVDVEDVRKFLDKEWAWVKELLAEHPAELAEVEAARAARLAELRAEVEAKVAA,2.05
8,E16L (designed binder) MTLQELLREEALRRALAEAFRYALELLAEKFPEQKEYLLDLAEEIESQIRSLSGVDVEDVRKFLDKEWAWVKELLAEHPAELAEVEAARAARLAELRAEVEAKVAA,0.593
9,A15T (designed binder) MTLQELLREEALRRTEAEAFRYALELLAEKFPEQKEYLLDLAEEIESQIRSLSGVDVEDVRKFLDKEWAWVKELLAEHPAELAEVEAARAARLAELRAEVEAKVAA,0.49
10,L6S (designed binder) MTLQESLREEALRRAEAEAFRYALELLAEKFPEQKEYLLDLAEEIESQIRSLSGVDVEDVRKFLDKEWAWVKELLAEHPAELAEVEAARAARLAELRAEVEAKVAA,4.83
11,R21V (designed binder) MTLQELLREEALRRAEAEAFVYALELLAEKFPEQKEYLLDLAEEIESQIRSLSGVDVEDVRKFLDKEWAWVKELLAEHPAELAEVEAARAARLAELRAEVEAKVAA,0.718
12,E29V (designed binder) MTLQELLREEALRRAEAEAFRYALELLAVKFPEQKEYLLDLAEEIESQIRSLSGVDVEDVRKFLDKEWAWVKELLAEHPAELAEVEAARAARLAELRAEVEAKVAA,0.539
13,E44P (designed binder) MTLQELLREEALRRAEAEAFRYALELLAEKFPEQKEYLLDLAEPIESQIRSLSGVDVEDVRKFLDKEWAWVKELLAEHPAELAEVEAARAARLAELRAEVEAKVAA,1.16
14,F20L (designed binder) MTLQELLREEALRRAEAEALRYALELLAEKFPEQKEYLLDLAEEIESQIRSLSGVDVEDVRKFLDKEWAWVKELLAEHPAELAEVEAARAARLAELRAEVEAKVAA,0.593
15,E36Q (designed binder) MTLQELLREEALRRAEAEAFRYALELLAEKFPEQKQYLLDLAEEIESQIRSLSGVDVEDVRKFLDKEWAWVKELLAEHPAELAEVEAARAARLAELRAEVEAKVAA,0.49
16,I45Q (designed binder) MTLQELLREEALRRAEAEAFRYALELLAEKFPEQKEYLLDLAEEQESQIRSLSGVDVEDVRKFLDKEWAWVKELLAEHPAELAEVEAARAARLAELRAEVEAKVAA,15.2
17,L12F (designed binder) MTLQELLREEAFRRAEAEAFRYALELLAEKFPEQKEYLLDLAEEIESQIRSLSGVDVEDVRKFLDKEWAWVKELLAEHPAELAEVEAARAARLAELRAEVEAKVAA,0.593
18,R21K (designed binder) MTLQELLREEALRRAEAEAFKYALELLAEKFPEQKEYLLDLAEEIESQIRSLSGVDVEDVRKFLDKEWAWVKELLAEHPAELAEVEAARAARLAELRAEVEAKVAA,0.593
19,E18P (designed binder) MTLQELLREEALRRAEAPAFRYALELLAEKFPEQKEYLLDLAEEIESQIRSLSGVDVEDVRKFLDKEWAWVKELLAEHPAELAEVEAARAARLAELRAEVEAKVAA,1.05

# The next lines start with the values.
row,apparent Kd (screen) [nM],Binder
1,0.539,E95S (designed binder) MTLQELLREEALRRAEAEAFRYALELLAEKFPEQKEYLLDLAEEIESQIRSLSGVDVEDVRKFLDKEWAWVKELLAEHPAELAEVEAARAARLASLRAEVEAKVAA
2,13.8,G54D (designed binder) MTLQELLREEALRRAEAEAFRYALELLAEKFPEQKEYLLDLAEEIESQIRSLSDVDVEDVRKFLDKEWAWVKELLAEHPAELAEVEAARAARLAELRAEVEAKVAA
3,0.718,V100R (designed binder) MTLQELLREEALRRAEAEAFRYALELLAEKFPEQKEYLLDLAEEIESQIRSLSGVDVEDVRKFLDKEWAWVKELLAEHPAELAEVEAARAARLAELRAEREAKVAA
4,1.69,S51N (designed binder) MTLQELLREEALRRAEAEAFRYALELLAEKFPEQKEYLLDLAEEIESQIRNLSGVDVEDVRKFLDKEWAWVKELLAEHPAELAEVEAARAARLAELRAEVEAKVAA
5,0.49,E81S (designed binder) MTLQELLREEALRRAEAEAFRYALELLAEKFPEQKEYLLDLAEEIESQIRSLSGVDVEDVRKFLDKEWAWVKELLAEHPASLAEVEAARAARLAELRAEVEAKVAA
6,0.446,A91R (designed binder) MTLQELLREEALRRAEAEAFRYALELLAEKFPEQKEYLLDLAEEIESQIRSLSGVDVEDVRKFLDKEWAWVKELLAEHPAELAEVEAARARRLAELRAEVEAKVAA
7,0.593,E58H (designed binder) MTLQELLREEALRRAEAEAFRYALELLAEKFPEQKEYLLDLAEEIESQIRSLSGVDVHDVRKFLDKEWAWVKELLAEHPAELAEVEAARAARLAELRAEVEAKVAA
8,0.653,D56N (designed binder) MTLQELLREEALRRAEAEAFRYALELLAEKFPEQKEYLLDLAEEIESQIRSLSGVNVEDVRKFLDKEWAWVKELLAEHPAELAEVEAARAARLAELRAEVEAKVAA
9,0.653,L75C (designed binder) MTLQELLREEALRRAEAEAFRYALELLAEKFPEQKEYLLDLAEEIESQIRSLSGVDVEDVRKFLDKEWAWVKELCAEHPAELAEVEAARAARLAELRAEVEAKVAA
10,0.539,I49S (designed binder) MTLQELLREEALRRAEAEAFRYALELLAEKFPEQKEYLLDLAEEIESQSRSLSGVDVEDVRKFLDKEWAWVKELLAEHPAELAEVEAARAARLAELRAEVEAKVAA
11,0.653,H78Y (designed binder) MTLQELLREEALRRAEAEAFRYALELLAEKFPEQKEYLLDLAEEIESQIRSLSGVDVEDVRKFLDKEWAWVKELLAEYPAELAEVEAARAARLAELRAEVEAKVAA
12,0.539,A98P (designed binder) MTLQELLREEALRRAEAEAFRYALELLAEKFPEQKEYLLDLAEEIESQIRSLSGVDVEDVRKFLDKEWAWVKELLAEHPAELAEVEAARAARLAELRPEVEAKVAA
13,0.539,D59S (designed binder) MTLQELLREEALRRAEAEAFRYALELLAEKFPEQKEYLLDLAEEIESQIRSLSGVDVESVRKFLDKEWAWVKELLAEHPAELAEVEAARAARLAELRAEVEAKVAA
14,0.446,E95W (designed binder) MTLQELLREEALRRAEAEAFRYALELLAEKFPEQKEYLLDLAEEIESQIRSLSGVDVEDVRKFLDKEWAWVKELLAEHPAELAEVEAARAARLAWLRAEVEAKVAA
15,0.79,D65S (designed binder) MTLQELLREEALRRAEAEAFRYALELLAEKFPEQKEYLLDLAEEIESQIRSLSGVDVEDVRKFLSKEWAWVKELLAEHPAELAEVEAARAARLAELRAEVEAKVAA
16,0.49,A98V (designed binder) MTLQELLREEALRRAEAEAFRYALELLAEKFPEQKEYLLDLAEEIESQIRSLSGVDVEDVRKFLDKEWAWVKELLAEHPAELAEVEAARAARLAELRVEVEAKVAA
